According to the RNAGym collection of RNA variant scans (doi:10.1021/acssynbio.7b00057):

B1: Pistol ribozyme (parent)
chain: GGGUCGUUGUUCCAUAAUCGCGUGGAUAUGGCACGCAAGUUUCUACCGGGCACCGUAAAUGUCCGACUGGAGCCGUUCGGGCGGCUAUAAACAGACCUCAGGCCCGAAGCGUGGCGGCACCUGCCGCCGGUGGUAAAAAAGAUCGGAAGAGCACACGUCU

Variants of: B1
Test: aptazyme ON/OFF ratio, guanine; higher = stronger switching; co-transcriptional cleavage with and without guanine

Variant | aptazyme ON/OFF ratio
U8C G9U U10G U11C C12G C13U | 1.2
U8C G9U U10G U11C C12G C13A | 1.22
U8C G9U U10G U11C C12G C13G | 1.26
U8C G9U U10C U11A C13G | 1.05
U8C G9U U10C U11A C13A | 1.13
U8C G9U U10C U11A C13U | 1.16
U8C G9U U10G C12A C13U | 1.57
U8C G9U U10G C12A C13G | 1.13
U8C G9U U10G C12A C13A | 1.48
U8C G9U U10G | 2.84
U8C G9U U10G U11G C12U C13A | 1.11
U8C G9U U10G U11G C12U C13U | 1.15
U8C G9U U10G U11G C12U C13G | 1.08
U8C U10C U11C | 1.85
U8C U10C U11A | 1.63
U8C U10C U11G | 1.42
U8C U10A U11A C12A C13A | 1.19
U8C U10A U11A C12A C13G | 1.07
U8C U10A U11A C12A C13U | 1.12
U8C G9U U11G C12G C13G | 1.1
U8C G9U U11G C12G C13U | 1.09
U8C G9U U11G C12G C13A | 1.19
U8C U10G U11A C12A C13A | 1.18
U8C U10G U11A C12A C13U | 1.2

Variant | aptazyme ON/OFF ratio
U8C U10G U11A C12A C13G | 1.15
U8C U10A U11C C13U | 1.03
U8C U10A U11C C13A | 1.02
U8C U10A U11C C13G | 1.04
U8C U10G U11A C12U C13A | 1.35
U8C U10G U11A C12U C13G | 1.12
U8C U10G U11A C12U C13U | 1.25
U8C U10A U11G C12G C13A | 1.43
U8C U10A U11G C12G C13U | 1.28
U8C U10A U11G C12G C13G | 1.39
U8C G9U U10G U11A | 1.13
U8C G9U U10G U11G | 2.19
U8C G9U U10G U11C | 1.13
U8C G9U U11C C12U C13U | 1.1
U8C G9U U11C C12U C13G | 1.04
U8C G9U U11C C12U C13A | 1.04
U8C G9U U10G U11C C12G | 1.19
U8C G9U U10G U11C C12U | 1.04
U8C G9U U10G U11C C12A | 1.62
U8C U10G | 1.76
U8C U10A | 1.1
U8C U10C | 2.68
U8C G9U U10C C12A C13U | 1.19
U8C U10C U11A C12G C13U | 1.24

Variant | aptazyme ON/OFF ratio
U8C U10C U11A C12G C13G | 1.24
U8C U10C U11A C12G C13A | 1.2
U8C G9U U10C U11C C12A C13A | 1.09
U8C G9U U10C U11C C12A C13U | 1.07
U8C G9U U10C U11C C12A C13G | 1.62
U8C U10A U11G C12A C13A | 1.24
U8C U10A U11G C12A C13U | 1.33
U8C U10A U11G C12A C13G | 1.26
U8C G9U U10G U11G C12A C13A | 1.14
U8C G9U U10G U11G C12A C13U | 1.17
U8C G9U U10G U11G C12A C13G | 1.07
U8C U10C U11A C12A C13G | 1.14
U8C U10C U11A C12A C13A | 1.35
U8C U10C U11A C12A C13U | 1.25
U8C U10C C12U C13A | 1.21
U8C U10C C12U C13U | 1.41
U8C U10C C12U C13G | 1.26
U8C G9U U11C C12G C13U | 1.15
U8C G9U U11C C12G C13A | 1.13
U8C G9U U11C C12G C13G | 1.03
U8C G9U U10C U11G C12U | 1.22
U8C G9U U10C U11G C12G | 1.12
U8C G9U U10C U11G C12A | 1.07
U8C G9U U10G U11A C13U | 1.14

Variant | aptazyme ON/OFF ratio
U8C G9U U10G U11A C13G | 1.13
U8C G9U U10G U11A C13A | 1.1
U8C U10A U11C C12G C13A | 1.16
U8C U10A U11C C12G C13G | 1.38
U8C U10A U11C C12G C13U | 1.2
U8C G9U U10C U11G C12G C13G | 1.15
U8C G9U U10C U11G C12G C13U | 1.07
U8C G9U U10C U11G C12G C13A | 1.11
U8C G9U U11C C13A | 1.03
U8C G9U U11C C13U | 1.01
U8C G9U U11C C13G | 1.03
U8C U10A C12U C13G | 1.11
U8C U10A C12U C13A | 1.14
U8C U10A C12U C13U | 1.32
U8C G9U U10G U11C C12U C13G | 1.11
U8C G9U U10G U11C C12U C13U | 1.19
U8C G9U U10G U11C C12U C13A | 1.19
U8C U10G C12U | 1.36
U8C U10G C12G | 1.07
U8C U10G C12A | 1.12
U8C U10G C12U C13A | 1.21
U8C U10G C12U C13G | 1.11
U8C U10G C12U C13U | 1.2
U8C U10C U11C C12A C13G | 1.33

Variant | aptazyme ON/OFF ratio
U8C U10C U11C C12A C13A | 1.32
U8C U10C U11C C12A C13U | 1.36
U8C G9U U10G U11A C12A C13U | 1.72
U8C G9U U10G U11A C12A C13G | 1.17
U8C G9U U10G U11A C12A C13A | 1.44
U8C G9U U11C C12A C13U | 1.18
U8C G9U U11C C12A C13A | 1.11
U8C G9U U11C C12A C13G | 1.04
U8C G9U U10C U11A C12G C13U | 1.08
U8C G9U U10C U11A C12G C13G | 1.11
U8C G9U U10C U11A C12G C13A | 1.08
U8C U10A U11A C12U C13G | 1.3
U8C U10A U11A C12U C13A | 1.18
U8C U10A U11A C12U C13U | 1.26
U8C U10C C13A | 1.07
U8C U10C C13U | 1.51
U8C U10C C13G | 1.26
U8C G9U U11G C12A C13U | 1.26
U8C G9U U11G C12A C13G | 1.18
U8C G9U U11G C12A C13A | 1.16
U8C U10G U11A C13G | 1.19
U8C U10G U11A C13U | 1.18
U8C U10G U11A C13A | 1.26
U8C U10G C12A C13G | 1.11

Variant | aptazyme ON/OFF ratio
U8C U10G C12A C13A | 1.11
U8C U10G C12A C13U | 1.11
U8C G9U U10C C13G | 1.04
U8C G9U U10C C13U | 1.27
U8C G9U U10C C13A | 1.03
U8C G9U U10G U11G C12A | 1.22
U8C G9U U10G U11G C12U | 1.12
U8C G9U U10G U11G C12G | 1.18
U8C U10A U11A C13G | 1.22
U8C U10A U11A C13U | 1.21
U8C U10A U11A C13A | 1.17
U8C U10C U11G C12A | 1.15
U8C U10C U11G C12U | 1.39
U8C U10C U11G C12G | 1.25
U8C G9U U10C C12G C13G | 1.19
U8C G9U U10C C12G C13A | 1.12
U8C G9U U10C C12G C13U | 1.24
U8C U10G C13G | 1.15
U8C U10G C13A | 1.27
U8C U10G C13U | 1.37
U8C U10C U11G C13G | 1.14
U8C U10C U11G C13U | 1.28
U8C U10C U11G C13A | 1.26
U8C U10G U11C | 1.1

Variant | aptazyme ON/OFF ratio
U8C U10G U11A | 1.07
U8C G9U U10G U11A C12U C13A | 1.24
U8C G9U U10G U11A C12U C13U | 1.31
U8C G9U U10G U11A C12U C13G | 1.16
U8C G9U U10G C12U C13U | 1.01
U8C G9U U10G C12U C13A | 1.28
U8C G9U U10G C12U C13G | 1.11
U8C U10C U11A C12A | 1.34
U8C U10C U11A C12G | 1.35
U8C U10C U11A C12U | 1.39
U8C G9U U11A C12U C13U | 1.17
U8C G9U U11A C12U C13A | 1.36
U8C G9U U11A C12U C13G | 1.12
U8C U10A C12U | 1.1
U8C U10A C12G | 1.21
U8C U10A C12A | 1.29
U8C U10C C12G C13A | 1.37
U8C U10C C12G C13G | 1.29
U8C U10C C12G C13U | 1.33
U8C U10A U11A C12A | 1.17
U8C U10A U11A C12U | 1.22
U8C U10A U11A C12G | 1.28
U8C U10A U11C C12A | 1.08
